Target: T1, malaria vaccine candidate protein Pfs48 with PR-1a signal peptide, 6xHis tag and KDEL
T1 chain: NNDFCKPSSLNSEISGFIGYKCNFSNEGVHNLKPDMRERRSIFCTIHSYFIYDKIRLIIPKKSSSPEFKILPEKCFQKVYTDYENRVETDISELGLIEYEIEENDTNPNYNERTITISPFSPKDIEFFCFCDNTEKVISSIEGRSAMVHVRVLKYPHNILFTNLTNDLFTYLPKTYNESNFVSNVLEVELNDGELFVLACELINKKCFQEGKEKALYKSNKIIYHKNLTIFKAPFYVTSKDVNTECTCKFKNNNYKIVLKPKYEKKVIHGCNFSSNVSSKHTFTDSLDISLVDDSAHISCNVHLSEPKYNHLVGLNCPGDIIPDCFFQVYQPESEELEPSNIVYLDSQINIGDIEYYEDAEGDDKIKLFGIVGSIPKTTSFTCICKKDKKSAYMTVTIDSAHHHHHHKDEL

B1: endoglycosidase F from Elizabethkingia meningoseptica (PNGaseF) with PR-1a signal peptide, FLAG tag and KDEL (protein)
chain: APADNTVNIKTFDKVKNAFGDGLSQSAEGTFTFPADVTTVKTIKMFIKNECPNKTCDEWDRYANVYVKNKTTGEWYEIGRFITPYWVGTEKLPRGLEIDVTDFKSLLSGNTELKIYTETCLAKGREYSVDFDIVYGTPDYKYSAVVPVIQYNKSSIDGVPYGKAHTLGLKKNIQLPTNTEKAYLRTTISGWGHAKPYDAGSRGCAEWCFRTHTIAINNANTFQHQLGALGCSANPINNQSPGNWAPDRAGWCPGMAVPTRIDVLNNSLTGSTFSYEYKFQSWTNNGTNGDAFYAISSFVIAKSNTPISAPVVTNDYKDDDDKDEL
electrophoretic mobility of Pfs48 on Western blot (deglycosylation on co-expression in planta): the electrophoretic mobility of the glycosylated Pfs48 (control, which was expressed w/o PNGaseF) was different (less mobility) compared to the non-glycosylated form of Pfs48 that was co-expressed with PNGaseF
